Laboratory results reported in patent US20150093388A1 (IMMUNOGEN, published 2015).
Positions count from the first letter of the chain named. Names may count otherwise. Values belong to the binder of their own block, whether it stands above or below them.

Key:
[1] = target: T1, recombinant FOLR3-His (R&D Systems) (UniProt P41439 23-245, limits assumed); assay: ELISA, FOLR3-His immobilized on Ni-NTA plate
T1 construct: not shown: His tag
Protocol: (§1) FOLR1 is a member of Folate Receptor family. Cross-reactivity of the anti-FOLR1 antibodies with the other members of the family FOLR2 and FOLR3 was assayed by ELISA. Recombinant protein FOLR2-His or FOLR3-His (R&D Systems) was immobilized to Ni-NTA plates (QIAGEN) and the anti-FOLR1 antibodies were added to the plates and incubated for 2 hours at room temperature. As positive controls for FOLR2 and FOLR3 ELISA polyclonal anti-FOLR2 and FOLR3 antibodies (R&D systems), respectively, were used. The formed antibody-antigen complexes were detected with hip-labeled goat anti-murine secondary antibody.

[2] = target: T2, recombinant human FOLR1-murine IgG2a Fc protein (human; murine, UniProt P15328 25-234, limits assumed); assay: ELISA, recombinant human FOLR1-murine Fc2a immobilized on the plate, hrp goat anti-murine secondary
T2 construct: also called humanFOLR1-murine Fc2a; FOLR1-Fc; not shown: murine IgG2a Fc
Protocol: The binding affinity of the anti-FOLR1 antibodies was examined by ELISA where recombinant humanFOLR1-murine Fc2a protein was used as the antigen. The recombinant protein was immobilized on microtiter plates, and the antibodies were added at a range of concentrations to the plates. The plates were incubated for two hours at room temperature, washed with PBS supplemented with 0.05% Tween-20, and incubated with hrp-labeled goat anti-murine secondary antibody for one hour at room temperature. The plates were washed with PBS/Tween-20 again, and bound hrp-conjugated antibody was detected by adding the hrp-substrate TMB (Bio-FX).

[3] = target: T3, recombinant FOLR2-His (R&D Systems) (UniProt P14207 17-228, limits assumed); assay: ELISA, FOLR2-His immobilized on Ni-NTA plate
T3 construct: not shown: His tag
Protocol: as §1

[4] = target: T4, human folate receptor 1 (FOLR1) on cells, in cell lysates and in FFPE tissues (human, UniProt P15328 25-234, N-glycosylated at positions 69, 161 and 201); assay: Western blot of cell lysates
T4 construct: also called folate receptor alpha; FR-alpha
Protocol: (§2) Human FOLR1 has three potential sites for N-glycosylation at positions 69, 161 and 201 (UniProt), and, as reported in literature, all three sites are glycosylated. To characterize the nature of the epitopes recognized by the anti-FOLR1 antibodies described herein, binding experiments were performed with deglycosylated and non-treated receptor. Of the generated anti-FOLR1 clones, only clone 2.1 was used in the study because, based on the sequencing data, the clones are related and likely to bind to the same epitope. In addition to clone 2.1, two other anti-FOLR1 antibodies were included: huMov19 (WO 2011/106528) and clone BN3.2 (Leica). In order to deglycosylate FOLR1, recombinant human FOLR1 or lysates of FOLR1-positive KB or Igrov-1 cells were treated with a mixture of deglycosylation enzymes (Enzymatic DeGlycoMX Kit, QA-bio) according to the Manufacturer's protocol. Then, samples of treated and non-treated FOLR1 were used in ELISA and Western blot analysis. […] After 2 h incubation, antibody-antigen complexes were detected with hip-labeled goat anti-human (for huMov19) or anti-murine (for 2.1) secondary antibody (FIG. 7). […] The membrane was incubated with the anti-FOLR1 antibodies 2.1, huMov19, or BN3.2, and the antigen-antibody complexes were detected with the appropriate secondary anti-murine or anti human antibodies conjugated with horse-radish peroxidase (FIG. 8).

[5] = target: T5, deglycosylated human FOLR1 in lysates of KB and Igrov-1 cells (human, UniProt P15328 25-234, glycans removed with a mixture of deglycosylation enzymes (Enzymatic DeGlycoMX Kit)); assay: Western blot of enzymatically deglycosylated cell lysates
T5 construct: Endogenous FOLR1 of cell lysates after enzymatic deglycosylation; also called deglycosylated lysates
Protocol: as §2

[6] = target: T6, recombinant human FOLR1 (non-treated) (human, UniProt P15328 25-233, limits assumed, N-glycosylated (non-treated)); assay: ELISA, FOLR1 immobilized on the plate, hrp goat anti-human secondary
T6 construct: also called huFOLR1 recombinant protein; non-treated FOLR1
Protocol: as §2

[7] = target: T7, deglycosylated recombinant human FOLR1 (human, UniProt P15328 25-233, limits assumed, glycans removed with a mixture of deglycosylation enzymes (Enzymatic DeGlycoMX Kit)); assay: ELISA, deglycosylated FOLR1 immobilized on the plate, hrp goat anti-human secondary
T7 construct: also called deglycosylated FOLR1
Protocol: as §2

T1 sequence (P41439 23-245 limits assumed): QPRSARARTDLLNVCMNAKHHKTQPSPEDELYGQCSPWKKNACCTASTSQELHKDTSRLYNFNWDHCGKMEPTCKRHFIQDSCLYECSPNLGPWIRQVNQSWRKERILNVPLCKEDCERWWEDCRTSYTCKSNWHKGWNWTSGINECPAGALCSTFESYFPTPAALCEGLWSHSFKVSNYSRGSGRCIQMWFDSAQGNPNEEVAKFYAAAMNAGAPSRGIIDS
T3 sequence (P14207 17-228 limits assumed): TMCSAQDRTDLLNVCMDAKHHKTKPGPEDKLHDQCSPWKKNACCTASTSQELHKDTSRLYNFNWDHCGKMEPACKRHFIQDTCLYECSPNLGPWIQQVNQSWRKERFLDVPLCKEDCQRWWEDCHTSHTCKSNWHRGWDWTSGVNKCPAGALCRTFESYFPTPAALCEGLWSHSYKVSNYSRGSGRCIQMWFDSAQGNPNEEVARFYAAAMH
T6 sequence (P15328 25-233 limits assumed): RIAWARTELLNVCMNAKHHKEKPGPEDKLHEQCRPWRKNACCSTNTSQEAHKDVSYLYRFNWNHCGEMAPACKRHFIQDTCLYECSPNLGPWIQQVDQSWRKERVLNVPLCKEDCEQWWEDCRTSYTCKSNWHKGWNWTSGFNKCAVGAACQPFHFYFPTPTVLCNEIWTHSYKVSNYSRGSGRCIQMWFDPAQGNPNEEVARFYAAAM
T7 sequence (P15328 25-233 limits assumed): as above
T2 sequence (P15328 25-234 limits assumed): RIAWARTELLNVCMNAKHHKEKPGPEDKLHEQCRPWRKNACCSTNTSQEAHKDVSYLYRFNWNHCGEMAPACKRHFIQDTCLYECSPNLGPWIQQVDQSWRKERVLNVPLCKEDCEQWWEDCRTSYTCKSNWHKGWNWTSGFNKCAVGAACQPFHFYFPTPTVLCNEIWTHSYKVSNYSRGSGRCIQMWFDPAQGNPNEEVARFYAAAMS
T4 sequence (P15328 25-234): as the sequence (P15328 25-234 limits assumed) above
T5 sequence (P15328 25-234): as the sequence (P15328 25-234 limits assumed) above

- binding result [1]: no binding (tested: about 3x10^-8 M)
- EC50 [2]: 0.5 nM
- binding result [3]: no binding (tested: 10^-8 M)
B1: muFRIHC2-1 (anti-FOLR1 antibody 353.2-1, ATCC PTA-120197) (antibody, mouse IgG1, kappa, V domains shown)
VH: QVQLQQSGPELVKPGASVRISCKASGYTFTNSYIHWVKKRPGQGLEWIGWIYPESLNTQYNEKFKAKATLTADKSSSTSYMQLSSLTSEDSAVYFCARRGIYYYSPYALDHWGQGASVTVSS
VL: DVVLTQTPLSLPVNIGDQASISCKSSKSLLNSDGFTYLDWYLQKPGQSPQLLIYLVSNHFSGVPDRFSGSGSGTDFTLKISRVEAEDLGVYYCFQSNYLPLTFGGGTKLEIKR
notes: also called FOLR1-2.1

- binding result [1]: no binding (tested: about 3x10^-8 M)
- binding result [3]: no binding (tested: 10^-8 M)
B2: muFRIHC5-7 (anti-FOLR1 antibody 353.5-7) (antibody, mouse IgG1, kappa, V domains shown)
VH: B1 VH with L11V, S32Y, K39Q, E54G, L56F, T58V, Q59E, S79V, Y103F, H111Y
VL: B1 VL with S26T, K27E, I111V
notes: Murine monoclonal; also called clone 5.7

- binding result [1]: no binding (tested: about 3x10^-8 M)
- binding result [3]: no binding (tested: 10^-8 M)
B3: anti-FOLR1 antibody 353.9-21 (antibody, mouse IgG1, kappa, V domains shown)
VH: QVQLQQSGPDLVKPGASVRISCKASGFTFTNYYIHWVKQRPGQGLEWIGWIYPENVNVRYNDKFKAKATLTADKSSSTAYMQLSSLTSEDSAVYFCARRGIYYYSPYAMDYWGQGASVTVSS
VL: B1 VL with I15L, S26T
notes: Sister subclone of 9.20; also called clone 9.21

- binding result [4]: binds
- binding result [5]: binds
- binding result [6]: binds
- binding result [7]: binds
B4: huMov19 (antibody, human IgG1, kappa, V domains shown)
VH: QVQLVQSGAEVVKPGASVKISCKASGYTFTGYFMNWVKQSPGQSLEWIGRIHPYDGDTFYNQKFQGKATLTVDKSSNTAHMELLSLTSEDFAVYYCTRYDGSRAMDYWGQGTTVTVSS
VL: DIVLTQSPLSLAVSLGQPAIISCKASQSVSFAGTSLMHWYHQKPGQQPRLLIYRASNLEAGVPDRFSGSGSKTDFTLTISPVEAEDAATYYCQQSREYPYTFGGGTKLEIKR
notes: the full chains labelled huMov19 HC (55) and huMov19 LCv1.60 (57) are used; also called M9346A; antibody of IMGN853
